Reference: article PMC5664961
pKd: −log10 of the molar value.

How the values were obtained:
[1] = target: 6His-KCTD17 BTB domain (residues G20-K131), N-terminal hexahistidine tag kept (human); assay: crystal structure; BTB domains alone, sitting-drop vapour diffusion at 20 and 4°C, data at 100 K
[2] = target: 6His-KCTD17 BTB domain (residues G20-K131), N-terminal hexahistidine tag kept (human); assay: as above; remark: listed apart in the source
[3] = target: 6His-KCTD17 BTB domain (residues G20-K131), N-terminal hexahistidine tag kept (human); assay: SEC-MALS; BTB domains alone, injected at 50 µM; Shodex KW-803; 50 mM HEPES pH 7.5, 150 mM NaCl, 1 mM TCEP
[4] = target: 6His-KCTD17 BTB domain (residues G20-K131), N-terminal hexahistidine tag kept (human); assay: native MS; 6His-KCTD17 at 2 mg/ml exchanged into 50 mM ammonium acetate pH 6.5; electrospray, Agilent 6530 QTOF
[5] = target: 6His-KCTD17 BTB domain (residues G20-K131), N-terminal hexahistidine tag kept (human); assay: SAXS; BTB domains alone, ~750 µM monomer; 50 mM HEPES, 150 mM NaCl, 0.5 mM TCEP; curves compared with those calculated from the crystal structures
[6] = target: 6xHis-tagged KCTD17 BTB + CTD multi-domain construct (residues G20-Q220), tag kept (human); assay: SEC; KCTD17 constructs alone, 6xHis-tagged or tag-cleaved; UV 280 nm traces; various running buffers (pH, salt)
[7] = target: KCTD17 BTB + CTD multi-domain construct (residues G20-Q220), tag cleaved (human); assay: SEC; KCTD protein alone and mixed with Cul3 NTD at a molar ratio of 1 : 1; UV 280 nm traces; injected at 50 µM; 50 mM HEPES pH 7.5, 150 mM NaCl, 1 mM TCEP
[8] = target: human Cul3 N-terminal domain (NTD, residues M1-L388) with the engineered mutations I342R and L346D (human) (UniProt Q13618); assay: as above
[9] = target: KCTD17 BTB + CTD multi-domain construct (residues G20-Q220) (human); assay: ITC; KCTD17 in the cell, titrated with Cul3 from the syringe; 15°C; 50 mM HEPES pH 7.5, 150 mM NaCl, 1 mM TCEP, 5% glycerol; single-binding site model
[10] = target: T1, KCTD17 BTB domain (residues G20-K131) (human); assay: as above
T1 sequence (Q8N5Z5 20-131, looked up): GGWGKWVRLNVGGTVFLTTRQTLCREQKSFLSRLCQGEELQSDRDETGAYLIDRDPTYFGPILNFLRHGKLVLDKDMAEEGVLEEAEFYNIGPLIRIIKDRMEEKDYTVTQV

[11] = target: T2, KCTD17 BTB domain (residues G20-K131) as used in ITC (human); assay: ITC; KCTD17 in the cell, titrated with Cul3 NTD from the syringe; 15°C; 50 mM HEPES pH 7.5, 150 mM NaCl, 1 mM TCEP, 5% glycerol; single-binding site model
T2 sequence (Q8N5Z5 20-131, looked up): T1 sequence (Q8N5Z5 20-131, looked up)

[12] = target: human SHKBP1 BTB domain (residues G18-S120) (human) (UniProt Q8TBC3); assay: SEC; KCTD protein alone and mixed with Cul3 NTD at a molar ratio of 1 : 1; UV 280 nm traces; injected at 50 µM; 50 mM HEPES pH 7.5, 150 mM NaCl, 1 mM TCEP

Chain of human Cul3 N-terminal domain (NTD, residues M1-L388) with the engineered mutations I342R and L346D (human) (Q13618 1-388 I342R/L346D): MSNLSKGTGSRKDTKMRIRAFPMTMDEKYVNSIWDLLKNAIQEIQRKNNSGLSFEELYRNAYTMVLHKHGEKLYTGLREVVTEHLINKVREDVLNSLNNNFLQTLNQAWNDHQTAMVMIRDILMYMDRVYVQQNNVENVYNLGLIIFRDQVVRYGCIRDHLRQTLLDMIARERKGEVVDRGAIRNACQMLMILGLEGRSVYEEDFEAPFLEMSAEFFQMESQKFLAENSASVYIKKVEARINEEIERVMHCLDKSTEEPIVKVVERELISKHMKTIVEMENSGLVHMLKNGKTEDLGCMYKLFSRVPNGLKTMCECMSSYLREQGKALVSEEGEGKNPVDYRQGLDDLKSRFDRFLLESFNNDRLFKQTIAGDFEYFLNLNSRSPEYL

For “6His-KCTD17 BTB domain (residues G20-K131), N-terminal hexahistidine tag kept (domain or fragment)”, the stoichiometry N [1] was 5, the stoichiometry N [2] was 60 and the stoichiometry N [3] was 60. The stoichiometry N [4] was 60 and the stoichiometry N [5] was 60.

With “6xHis-tagged KCTD17 BTB + CTD multi-domain construct (residues G20-Q220), tag kept (domain or fragment)” the stoichiometry N [6] was 60.

Work on “KCTD17 BTB + CTD multi-domain construct (residues G20-Q220), tag cleaved (domain or fragment)” yielded a stoichiometry N [7] of 5 and a stoichiometry N (KCTD : Cul3 (5 : 5)) [8] of 1.

With “human Cul3 N-terminal domain (NTD, residues M1-L388) with the engineered mutations I342R and L346D (from UniProt Q13618 1-388) (domain or fragment)” the Ka [9] was 8.66e+07 M⁻¹, the pKd [9] was 7.92 and the stoichiometry N [9] was 2.3. The Ka [10] was 1.41e+08 M⁻¹ and the pKd [11] was 8.15.

Work on “human SHKBP1 BTB domain (residues G18-S120) (from UniProt Q8TBC3 18-120) (domain or fragment)” yielded a stoichiometry N [12] of 5.
